For this assay, the target named is endogenous CD28 (human, on Jurkat cells and primary T lymphocytes) (human) (UniProt P10747). The assay can be described thus: cell-based or functional assay.

In turn, anti-CD28 Mab 28.2 (antibody) displayed a % of dead cells, 3G6-CD28 transduced T lymphocytes, OKT3/28.2, day 3 (trypan blue) of 10%; a % of dead cells, NTP transduced T lymphocytes, OKT3/28.2, day 6 (trypan blue) of 15%; an IL-2 secretion with PMA and ionomycin (ELISA, 24 hours), Jurkat-NTP of 960 pg/mL; an IL-2 secretion with PMA and ionomycin (ELISA, 24 hours), both cell populations of 3 fold.

Source of the values: patent US20020018783A1.
